Here are results for 1 sequence from paper PMC7595419.

The series deals with SicA-His6 (Salmonella enterica serovar Typhimurium) (UniProt P69066). Kind of series: EMSA. (A gel shift assay detects complexes by their altered migration in electrophoresis.)
Chain of SicA-His6 (Salmonella enterica serovar Typhimurium) (P69066 whole entry): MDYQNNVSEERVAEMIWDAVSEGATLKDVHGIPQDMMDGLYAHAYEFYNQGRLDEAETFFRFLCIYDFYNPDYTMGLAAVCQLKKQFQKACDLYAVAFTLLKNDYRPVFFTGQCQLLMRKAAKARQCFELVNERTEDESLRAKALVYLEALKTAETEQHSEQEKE

“ATAGGATCCCGTTGTATAAGGTTTTTTGTAGGCTTTTAAAAGCCTCCTGGGTTTTTAGTGAAGCTGAGTGATAGAAGCTCTGTATTTGCATAGCGTTTTTAATATTCCTGAATAGGGGAGTGGGAACATTCAACAGGGTTAACAACCCTTTAAAAGGATGTGACTTTTATGCACCAGGAACTTTAAAAAAATGTCCTTTTTAATGAGGAAACGCTTCTGATCAGGCGGGGAGGCATCCTGACGTCCATACGTAGTGGCGATCATGGGGGAGATCGGTACATCAAATGTCTAGATAT (double strand) [sopB regulatory region (-200 to +79)]”: the binding result is listed as “no binding”.
